Measurements reported in the supplement of paper PMC10567573.

B1: PWWP2B (parent)
chain: TIRLRPRQVLCEKCKSTLSPPEAS
B2: ZNF232 (parent)
chain: FPKSEQVYLHFLSVVTEDGPEPKD

Variants of: B1
Assay: protein stability index of a GFP-peptide fusion (GPS, HEK-293T) (PSI 1-6); higher = more stable
Details: c terminus: a fixed tail appended
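Further: lentivirally expressed fusions sorted by FACS into six bins by GFP to DsRed ratio, PSI derived from sequencing read proportions per bin multiplied by bin number.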

Protein stability index, by site and new letter:
P20: T 2.76; Q 3.03; V 2.9; C 2.87; G 3.29; R 2.65; S 2.79; N 2.63; M 2.55; A 2.79; H 2.24; Y 2.42; F 2.26; D 3.5; L 2.41; W 2.45; K 2.66; I 2.44; E 3.22
P21: V 2.95; K 3.21; S 3.5; L 2.08; F 2.56; Y 2.42; T 2.69; C 2.72; R 2.72; E 3.63; W 2.35; I 2.67; H 2.79; A 3.29; M 2.73; G 2.78; D 3.89; Q 2.98; N 2.95
E22: H 2.34; Y 2.31; N 2.46; G 2.18; M 2.4; A 2.66; T 3.15; C 2.42; R 2.32; K 2.62; P 2.69; S 2.81; Q 2.58; D 3.41; L 2.85; W 1.94; V 3.18; F 2.02; I 2.09
A23: W 1.96; Q 3.94; F 2.43; Y 2.47; G 2.87; I 2.61; L 2.47; S 2.75; C 3.15; D 3.54; R 2.73; P 3.3; V 2.91; E 3.49; M 3.01; T 2.99; N 3.12; H 2.83; K 3.02
S24: V 2.62; M 1.97; N 2.98; Y 2.89; W 1.93; K 2.7; I 2.78; H 2.63; C 2.99; F 2.36; Q 3.09; P 2.9; G 2.6; D 3.44; A 2.64; L 2.66; E 3.28; R 3.02; T 3.25
S19: Y 2.94; V 3.18; W 1.84

Variants of: B2
Assay: as above
Details: c terminus: a fixed tail appended

Protein stability index, by site and new letter:
V7: Q 1.88; D 1.91; T 2.1; R 2.49; N 2.27; A 2.2; Y 1.02; S 2.59; M 3.74; K 3.21; P 2.97; H 1.61; F 1.68; L 2.32; E 2.8; I 1.97; C 1.63
V15: C 1.72; E 3.1; F 2.44; D 3.45
H10: C 2.81; D 3.04; S 1.95; Q 2.36; E 3.46; A 3.29; P 1.94; I 1.26; K 2.73; G 2.24; V 1.94; R 4.1; M 2.65
Q6: T 2.37; E 2.6; M 1.6; F 1.9; V 1.21; A 2.3; P 1.92; S 1.41; D 2.87; L 2.18; Y 1.47; N 2.07; I 2.23; H 1.88; K 1.86; C 2.19; R 1.85
V14: L 2.86; F 2.18; M 2.37; W 1.29; H 2.34; S 1.97; G 2.68; R 2.45; Q 2.82; I 3.05; T 2.23; N 3.09; P 3.14; E 3; K 2.29; Y 3.58; D 3.72; C 1.92
F1: R 3.89; K 4.44; Y 2.01; I 3.73; L 3.95; G 3.98; M 4.15; A 4.31; C 4.31; S 3.69; N 4.29; W 3; D 4.86; E 4.82; V 3.92; T 4.05; P 4.28; H 3.88; Q 4.75
F11: K 3.17; R 2.83; M 2.06; A 2.49; S 2.65; N 3.18; D 3.73; E 4.55; L 2.41; Y 2.29; H 2.99; C 1.76; G 3.61; P 3.74; W 2.08; T 2.27
S13: C 2.31; Y 3.15; D 3.54; G 1.5; N 2.46; F 1.66; R 1.98; M 1.96; A 1.89; Q 1.53; L 1.76; E 2.98; T 1.78; P 2.14; H 1.81; K 2.48
Y8: V 1.98; G 2.15; E 3.09; D 3.55; H 2.31; L 2.14; W 2.2; T 2.13; Q 3.33; A 2.46; P 3.14; F 1.88; C 2.49; N 2.01; I 2.27
L12: S 2.75; M 3.84; G 3.24; K 3.6; T 2.58; D 3.67; C 2.07; I 1.97; V 2.48; P 2.34; W 1.21; F 1.73; H 3.49; N 3.61; Q 3.99; E 3.96
S4: F 2.49; M 2.35; H 2.26; P 1.95; I 2.58; N 3.06; T 2.34; C 1.74; Q 2.29; W 2.14; A 1.77; K 1.89; G 1.66; V 1.61; E 2.95; R 1.66; L 1.78; D 2.24; Y 3.17
E5: D 2.84; P 1.75; K 3.34; L 2.47; Y 1.19; F 2.35; G 1.61; Q 1.9; A 2.29; I 2.23; S 1.7; V 2.58; H 2.31; W 2.02; C 1.65; T 1.59; M 2.04
L9: S 2.32; E 3.54; Q 2.78; W 1.71; Y 2.53; I 1.83; K 2.5; H 2.53; F 1.73; T 2.62; V 1.71; M 1.29; R 2.11; P 2.58
K3: P 2.46; Q 2.12; L 3.27; C 2.51; F 2.61; M 2.69; E 3.36; G 3.07; Y 2.02; W 1.95; T 2.75; A 2.85; D 2.35; S 2.7; H 2.09; I 2.23; N 2.71; V 2.33
P2: A 1.91; N 2.8; C 2.75; Q 2.14; D 3.92; L 2.29; T 2.68; W 2.44; V 2.26; M 2.28; H 1.54; I 2.72; K 2.91; G 2.78; E 4.04; F 2.37; Y 2.89
